Key:
Assay type in all cases: biochemical
LTA-2 [1] = experiment: Multi-cycle template-independent addition of LTA-2 (TiEOS); conditions: 7-deaza-7-hydroxymethyl-α-tert-butyl-2-nitrobenzyl modified LTA, 3 or 6 cycles
Procedure: This example tested the multi-cycle addition of a 3′-OH unblocked reversible terminator (LTA-2, shown in FIG. 1F) to the 3′ end of a single-stranded priming strand using the Pfu26 mutant polymerase. Single-base extension assays were performed as described in Example 7 using Pfu26 with modified LTA-2 that has a-tert-butyl substituted 2-nitrobenyl terminating group attached to 7-deaza-C7hydroxymethyl group. The modified LTA-2 optionally contains the αS triphosphate modification and HPLC-purified to isolate the Sp isomer (FIGS. 13A and 13C). At each incorporation cycle (3 cycles-FIGS. 13A&13B; 6 cycles-FIG. 13C), 1 ul was removed and saved on ice for ABI 3500 analysis. At each cycle, the remaining reaction volume was purified using MyOne T1 […] beads as follows (for the 3-cycle experiment). 127.5 ul of beads were washed 2×in 1 ml wash solution and resuspended in the original volume with the wash solution. A biotinylated, antisense T7 (underlined) primer with spacer (5′-CCCTATAGTGAGTCGTATACGGAGCATA-biotin) was added at a final concentration of 180 nM. The beads and capture oligo were mixed at 300 rpm for 30 min. at room temperature, washed 2×in 500 ul wash solution, and resuspended in 150 ul of the same. […] After purification (cycles 2-6), 2 ul of fresh enzyme/LTA mix was added, and the primer extensions were performed and analyzed as described above.

LTA-1 = experiment: Template-independent incorporation of LTA-1 to a priming strand
Procedure: This example tested the addition of a 3′-OH unblocked reversible terminator (LTA-1, shown in FIG. 1E, or LTA-2, shown in FIG. 1F) to the 3′ end of a single-stranded priming strand. The extension reaction was performed with 2 uM or 80 nM of a priming strand and varying concentrations (100/50/10/5/1 μM) of the reversible terminator. The performance of the Pfu26 polymerase was compared to TdT polymerase.
(§1) Primer extensions were carried out in duplicate 25 ul reactions containing 7.5 U calf thymus TdT, 1×Promega TdT buffer (with CoCl2), varying concentrations of LTA-1 (100 uM, 50 uM, 10 uM, 5 uM, or 1 uM), and either 2 uM (FIG. 11A to 11C) or 80 nM (FIG. 11D to 11F) of a priming strand (Fam-labeled T7 F primer (6Fam […]), SEQ ID NO:8). Controls were performed without the addition of a polymerase. Primer extensions were also carried out in reactions containing the Pfu26 mutant polymerase, 60 nM of the priming strand, and various concentrations (10 μM or 5 μM or 1 μM) of LTA-1 or LTA-2.
Reactions were incubated at 37° C. for 30 min., and then heat-killed for 10 min. at 70° C. Reaction products were split in half, and one-half was treated with UV as described in Example 7. Reactions were then diluted 1:333 (2 uM primer) or 1:13 (80 nM primer) in water, and 0.5 ul portions were analyzed by capillary electrophoresis using the conditions provided in Example 7.

LTA-2 [2] = experiment: Template-independent incorporation of LTA-2, LTU-2, LTG-2, LTC-2 to priming strands
Procedure: The template-independent DNA synthesis reactions employed 7.5 U TdT (Promega) or 180 nM (3×over primer) Pfu26 (D141A/E143A/A486L/Y546H/K477W/L409Y) or Pfu48 (D141A/E143A/A486R/Y546H/K477W/L409Y). Varying concentrations of dATP were added to 2 μM (TdT) or 60 nM (Pfu) T7 FOR primer (6′Fam […]) (SEQ ID NO:6) in duplicate reactions containing 1×TdT buffer with CoCl2(Promega) or 1×ThermoPol buffer (NEB). Reactions were incubated for 30 min. at 37° C. (TdT) or 60° C. (Pfu), and then inactivated with heat (TdT; 10 min. at 70° C.) or EDTA (1 ul 500 uM EDTA). Reaction products were exposed to UV using a Stratalinker (15-watt bulbs, […], 10 min). Reactions were diluted in water (TdT, 1:333; Pfu, 1:10) and 1 μl (TdT) or 0.5 μl (Pfu) aliquots were brought up to 10 μl with HiDI/LIZ 120 Size Standard. Products were heated at 95° C. for 5 min., cooled on ice for 2 min., and then analyzed on an ABI 3500 capillary electrophoresis system ([…] capillary, filter set #5, assay=GE5 LIZ120).
In this example, primer extension was carried out with LTA-2 (FIG. 1F) as a Rp+Sp racemic mixture of α-thiotriphosphate, using the conditions described in Example 7.
In further experiments, single-base extension reactions (10 ul) were performed with an equimolar mixture (3 uM each) of two single-stranded oligommcleotides:
Both were labeled with Fam but distinguishable by their lengths using capillary electrophoresis. Primer extension reactions were performed using the following three Pfu mutants at a concentration of 18 nM polymerase: • Pfu10: Pfu polymerase with D141A/E143A/A486L/Y546H/K477W mutations (SEQ ID NO:2) • Pfu26: Pfu polymerase with D141A/E143A/A486L/Y546H/K477W/L409Y mutations (SEQ ID NO:4) • Pfu48: Pfu polymerase with D141A/E143A/A486R/Y546H/K477W/L409Y mutations (SEQ ID NO:5) The extension reactions also employed individual αS-modified LTs in Rp+Sp racemic mixture (namely, LTA-2, LTU-2, LTG-2, and LTC-2) at final concentrations of 5 uM. LTU-2, LTG-2, and LTC-2 are all C7 or C5-hydroxymethyl-a-tert-butyl-2-nitrobenzyl modified reversible terminators like LTA-2, with uracil, guanine, and cytosine in place of adenine. […] Reactions were incubated, stopped, UV-treated, and analyzed as described in Example 7.
as §1

B1: Pfu26: Pfu D141A/E143A/A486L/Y546H/K477W/L409Y, SEQ ID NO:4 (protein)
chain: MILDVDYITEEGKPVIRLFKKENGKFKIEHDRTFRPYIYALLRDDSKIEEVKKITGERHGKIVRIVDVEKVEKKFLGKPITVWKLYLEHPQDVPTIREKVREHPAVVDIFEYDIPFAKRYLIDKGLIPMEGEEELKILAFAIATLYHEGEEFGKGPIIMISYADENEAKVITWKNIDLPYVEVVSSEREMIKRFLRIIREKDPDIIVTYNGDSFDFPYLAKRAEKLGIKLTIGRDGSEPKMQRIGDMTAVEVKGRIHFDLYHVITRTINLPTYTLEAVYEAIFGKPKEKVYADEIAKAWESGENLERVAKYSMEDAKATYELGKEFLPMEIQLSRLVGQPLWDVSRSSTGNLVEWFLLRKAYERNEVAPNKPSEEEYQRRLRESYTGGFVKEPEKGLWENIVYLDFRAYYPSIIITHNVSPDTLNLEGCKNYDIAPQVGHKFCKDIPGFIPSLLGHLLEERQKIKTKMKETQDPIEWILLDYRQKLIKLLANSFYGYYGYAKARWYCKECAESVTAWGRKYIELVWKELEEKFGFKVLYIDTDGLHATIPGGESEEIKKKALEFVKYINSKLPGLLELEYEGFYKRGFFVTKKRYAVIDEEGKVITRGLEIVRRDWSEIAKETQARVLETILKHGDVEEAVRIVKEVIQKLANYEIPPEKLAIYEQITRPLHEYKAIGPHVAVAKKLAAKGVKIKPGMVIGYIVLRGDGPISNRAILAEEYDPKKHKYDAEYYIENQVLPAVLRILEGFGYRKEDLRYQKTRQVGLTSWLNIKKS
modifications: Mutant of Pyrococcus furiosus Polymerase
For B1, the “Multi-cycle addition of LTA-2 (in words)” value (LTA-2 [1]) was “did not generate an individual product with 100% efficiency after 2-3 rounds of TiEOS”, the “Template-independent incorporation of LTA-1 (in words)” value (LTA-1) was “incorporate LTA-1 less efficiently” and the “Template-independent incorporation of LTA-2, LTU-2, LTG-2 and LTC-2 (in words)” value (LTA-2 [2]; 18 nM polymerase, 5 uM terminators, CE2 and T7 oligonucleotides) was “superior to Calf thymus Terminal Transferase (TdT)”. The “Template-independent incorporation of LTA-2 (in words)” value (LTA-2 [2]; single-stranded priming strand) was “efficient incorporation and termination”.
